This series has as its system TALEN-integrase (HIV IN deltaC) fusion pair targeting eGFP, 16 bp spacer. Nature of the series: cell_activity. Conditions: chloramphenicol-resistant colonies vs untargeted integrase; COS-7 plasmid integration assay.

For the substance eGFP TALEN pair target, 16 bp spacer, the activity came to 6 fold.

The values above are taken from patent US20240181084.
